# In paper PMC6962038 (Science Advances, 2020):
# B1: single-domain antibody (sdAb) antagonist JN241 (VHH)
# VHH: QVQLVESGGGSVQSGGSLTLSCAASGSTYSSHCMGWFRQAPGKEREGVALMTRSRGTSYADSVKGRFTISQDNTKNILYLQMNSLKPEDTAMYYCAAVPRAGIESGAYCKWNMKDSGSWGQGTLVTVSS
# What was measured:
# [1] = target: APJ463 chimeric receptor reconstituted in nanodiscs (human, UniProt P35414, C325L | C326M); assay: SPR
# [2] = target: wild-type human APJ (membrane preparation) (human, UniProt P35414); assay: cell-based or functional assay
binder,measurement,setting,value
B1,Kd,[1],0.083 nM
same,"IC50 of antagonism of the action of Apelin 13 on human APJ, cAMP assay",[2],5.9 nM
